The values below come from patent CN107987163A (HANGZHOU SHANGJIAN BIOTECHNOLOGY CO LTD, dated 2018).

Experiment [1] addresses T1, AXL-Fc (人AXL蛋白胞外段-人IgG1Fc段融合蛋白) (human, UniProt P30530 26-451).
T1 construct: extracellular domain; Expressed in CHO-K1 cells; also called 靶抗原AXL-Fc; 抗原AXL-Fc
T1 sequence (looked up): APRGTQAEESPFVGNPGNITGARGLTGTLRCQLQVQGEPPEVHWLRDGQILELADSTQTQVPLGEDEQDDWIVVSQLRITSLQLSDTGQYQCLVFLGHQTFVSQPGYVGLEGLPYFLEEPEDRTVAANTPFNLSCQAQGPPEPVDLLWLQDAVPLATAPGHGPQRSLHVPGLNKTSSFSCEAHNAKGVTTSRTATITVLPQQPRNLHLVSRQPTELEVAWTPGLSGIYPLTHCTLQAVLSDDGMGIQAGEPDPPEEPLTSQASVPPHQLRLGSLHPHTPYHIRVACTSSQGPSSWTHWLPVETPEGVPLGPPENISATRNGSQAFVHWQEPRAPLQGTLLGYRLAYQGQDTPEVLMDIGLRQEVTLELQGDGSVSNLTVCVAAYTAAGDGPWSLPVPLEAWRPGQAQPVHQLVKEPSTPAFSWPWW
Put plainly: ELISA, AXL-Fc coated at 1μg/ml, antibody titrated, goat anti-human IgG (Fab')2-HRP detection. For orientation: ELISA stands for enzyme-linked immunosorbent assay.

Experiment [2] has as its target T2, A549细胞表面AXL (AXL on the surface of A549 cells) (UniProt P30530 26-894, limits assumed).
T2 construct: whole, on cells; also called 细胞表面抗原
T2 sequence (looked up): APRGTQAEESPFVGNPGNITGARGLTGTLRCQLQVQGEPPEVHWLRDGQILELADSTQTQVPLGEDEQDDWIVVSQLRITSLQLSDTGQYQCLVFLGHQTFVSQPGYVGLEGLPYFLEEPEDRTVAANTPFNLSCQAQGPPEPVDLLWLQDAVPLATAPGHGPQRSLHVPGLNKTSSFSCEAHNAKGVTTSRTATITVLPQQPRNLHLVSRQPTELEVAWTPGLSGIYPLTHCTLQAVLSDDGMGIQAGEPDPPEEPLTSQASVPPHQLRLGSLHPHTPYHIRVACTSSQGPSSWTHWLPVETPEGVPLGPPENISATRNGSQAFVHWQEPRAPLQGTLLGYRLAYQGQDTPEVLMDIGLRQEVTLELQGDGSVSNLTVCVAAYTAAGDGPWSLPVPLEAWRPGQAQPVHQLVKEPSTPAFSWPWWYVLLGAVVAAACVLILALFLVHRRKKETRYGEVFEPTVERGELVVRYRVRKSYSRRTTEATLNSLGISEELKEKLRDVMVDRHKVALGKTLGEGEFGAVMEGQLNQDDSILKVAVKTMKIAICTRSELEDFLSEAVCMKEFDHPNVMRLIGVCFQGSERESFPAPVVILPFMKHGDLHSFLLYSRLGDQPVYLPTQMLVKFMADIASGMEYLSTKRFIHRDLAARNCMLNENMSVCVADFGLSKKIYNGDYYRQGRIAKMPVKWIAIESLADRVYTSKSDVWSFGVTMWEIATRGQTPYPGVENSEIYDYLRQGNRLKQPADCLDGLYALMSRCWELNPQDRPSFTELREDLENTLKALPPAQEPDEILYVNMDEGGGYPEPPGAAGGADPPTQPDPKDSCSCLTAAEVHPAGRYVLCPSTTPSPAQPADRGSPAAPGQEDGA
Nature of the experiment: flow cytometry on A549 cells, 9A diluted to 20μg/ml, PE mouse anti-human IgG detection.

A further experiment addresses BSA (BOVOGEN) (UniProt P02769 25-607). Put plainly: ELISA, protein coated at 1μg/ml, goat anti-human IgG-HRP detection.

Sequence of BSA (BOVOGEN) (P02769 25-607 limits assumed): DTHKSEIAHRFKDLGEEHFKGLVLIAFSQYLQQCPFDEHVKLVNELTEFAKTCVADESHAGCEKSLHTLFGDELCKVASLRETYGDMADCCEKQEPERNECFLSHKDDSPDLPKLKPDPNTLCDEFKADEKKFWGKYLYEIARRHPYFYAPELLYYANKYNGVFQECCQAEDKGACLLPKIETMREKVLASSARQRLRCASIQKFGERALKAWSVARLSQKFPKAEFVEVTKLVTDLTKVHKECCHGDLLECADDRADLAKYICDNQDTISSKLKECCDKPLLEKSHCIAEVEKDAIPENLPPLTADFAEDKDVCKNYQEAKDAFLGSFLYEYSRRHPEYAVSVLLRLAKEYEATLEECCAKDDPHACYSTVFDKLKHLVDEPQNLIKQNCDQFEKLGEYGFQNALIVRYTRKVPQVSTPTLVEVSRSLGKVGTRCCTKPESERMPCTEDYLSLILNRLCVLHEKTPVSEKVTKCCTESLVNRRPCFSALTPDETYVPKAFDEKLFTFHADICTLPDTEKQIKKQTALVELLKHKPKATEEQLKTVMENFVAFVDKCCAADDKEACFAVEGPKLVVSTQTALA

B1: 9A抗体 (full antibody 9A, anti-AXL monoclonal antibody) (antibody, human IgG1, kappa, V domains shown)
VH: QVQLVQSGAEVKKPGSSVKVSCKASGGTFSSYAISWVRQAPGQGLEWMGGIIPIFGTANYAQKFQGRATITADESTSTAYMELSSLRSEDTAVYYCARAYYDFWSGYEPWGQGTLVTVSS
VL: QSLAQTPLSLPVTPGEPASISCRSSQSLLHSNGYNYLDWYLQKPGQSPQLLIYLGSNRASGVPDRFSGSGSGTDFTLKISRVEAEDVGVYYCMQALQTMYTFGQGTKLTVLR
notes: also called 单克隆抗体9A; 全抗体
Consider B1, for which the binding result in experiment [1] is “binds”; in experiment [2] it was “binds”; with BSA (BOVOGEN) it was “no binding”.
